Series [1] has as its system TALEN left L20 of FIG. 4B (Comparative Example 1) (synthetic construct). Put plainly: cell_activity. As to conditions: SSA assay HEK293T, reference pair with R17.
In series [2] the test system is TALEN right R17 of FIG. 4B (Comparative Example 1) (synthetic construct). Put plainly: cell_activity. The following applies: SSA assay HEK293T, reference pair with L20.

As to “TCCATTCCTATGACTGTAGATTTTTATCAGACTGAAGAGCTATTGTGTGAGTATA (double strand) [FIG. 4B TALEN target]”, the activity in series [1] and in series [2] was 1 relative throughout.

The values are drawn from patent US10006011.
